Experimental data reported in paper PMC6859904.
Read-outs that look alike come from different tables or passages of the source.

Measured: enzymatic_activity

VCP/p97: 3D (S13D, S282D, T761D) phosphomimetic
increases: phosphorylation at S13 | phosphorylation at S282 | phosphorylation at T761
